Patent publication EP2871189A1 (INSTITUT PASTEUR, dated 2015)

Tests used:
[1] = target: T1, VHH-E9 containing the strep-tag sequence of SEQ ID NO: 13 at the C terminus; experiment: ELISA assay after Friguet et al 1985 (method as in the sentence before)
T1 construct: also called Strep-tagged anti-GFAP VHH E9; anti-GFAP VHH E9

[2] = target: recombinant ectodomain of glycoprotein E2 of GB virus (GBV-B) fused to the double Strep-Tag (GB virus (GBV-B)); experiment: Western blot

B1: monoclonal antibody C23.21 (antibody, V domains shown)
VH: EVQLEQSGPELVKPGASVKMSCKASGYTFTNYYMKWVKQSHGKSLEWIGDLNPNNGDTFYNQKFKGKATLTVDKSSNTAYMQLNSLTSEDSAVYYCARTGRYEENAMDYWGQGTSVTVSS
VL: ELVMTQSPASLAVSLGQRATISCRASESVDSYGKSFMHWYQLKPGQPPKLLIYRASNLESGVPARFSGSGSRTDFTLTIDPVEADDAATYYCQQNNEDPWTFGGGTKLEIK
notes: also called C23-21 mAb; anti-strep tag C23-21 mAb
- Kd [1]: 0.91 nM
- binding result [2]: binds
